Assay results as given in patent US9738911B2, “Methods of producing 7-carbon chemicals via pyruvate and succinate semialdehyde aldol condensation” (INVISTA North America S.a r.l., priority 2012, dated 2017).

What was measured:
Type in all cases: biochemical
[1] = Thioesterase enzyme activity assay, pimeloyl-CoA to pimelate; details: 667 μM pimeloyl-CoA, 0.8 μM enzyme, 37° C., 20 min, pH 7.4; compared to empty vector control (FIG. 8)
Protocol: A sequence encoding an N-terminal His tag was added to the tesB gene from Escherichia coli that encodes a thioesterase (SEQ ID NO 1, see FIG. 7A), such that an N-terminal HIS tagged thioesterase could be produced. The modified tesB gene was cloned into a pET15b expression vector under control of the T7 promoter. The expression vector was transformed into a BL21[DE3] E. coli host. The resulting recombinant E. coli strain was cultivated at 37° C. in a 500 mL shake flask culture containing 50 mL Luria Broth (LB) media and antibiotic selection pressure, with shaking at 230 rpm. The culture was induced overnight at 17° C. using 0.5 mM IPTO.
The pellet from the induced shake flask culture was harvested via centrifugation. The pellet was resuspended and lysed in Y-Per™ solution (ThermoScientific, Rockford, Ill.). The cell debris was separated from the supernatant via centrifugation. […]
The enzyme activity assay was performed in triplicate in a buffer composed of 50 mM phosphate buffer (pH=7.4), 0.1 mM Ellman's reagent, and 667 μM of pimeloyl-CoA (as substrate). […] The release of Coenzyme A was monitored by absorbance at 412 nm. The absorbance associated with the substrate only control, which contained boiled enzyme, was subtracted from the active enzyme assay absorbance and compared to the empty vector control.

[2] = Carboxylate reductase activity assay, pimelate to pimelate semialdehyde; details: 2 mM pimelate, 1 mM ATP, 1 mM NADPH, enhanced by sfp gene product, room temperature, 20 min; against empty vector control (FIG. 10)
Protocol: A sequence encoding a HIS-tag was added to the genes from Segniliparus rugosus and Segniliparus rotundus that encode the carboxylate reductases of SEQ ID NOs: 4 and 7, respectively (see FIGS. 7C and 7F), such that N-terminal HIS tagged carboxylate reductases could be produced. Each of the modified genes was cloned into a pET Duet expression vector along with a sfp gene encoding a HIS-tagged phosphopantetheine transferase from Bacillus subtilis, both under the T7 promoter. Each expression vector was transformed into a BL21[DE3] E. coli host and the resulting recombinant E. coli strains were cultivated at 37° C. in a 250 mL shake flask culture containing 50 mL LB media and antibiotic selection pressure, with shaking at 230 rpm. Each culture was induced overnight at 37° C. using an auto-induction media.
The pellet from each induced shake flask culture was harvested via centrifugation. Each pellet was resuspended and lysed via sonication, and the cell debris was separated from the supernatant via centrifugation. […]
Enzyme activity assays (i.e., from pimelate to pimelate semialdehyde) were performed in triplicate in a buffer composed of a final concentration of 50 mM HEPES buffer (pH=7.5), 2 mM pimelate, 10 mM MgCl, 1 mM ATP and 1 mM NADPH. […] The consumption of NADPH was monitored by absorbance at 340 nm.

[3] = Carboxylate reductase activity assay, N7-acetyl-7-aminoheptanoate to N7-acetyl-7-aminoheptanal; details: 2 mM N7-acetyl-7-aminoheptanoate, 1 mM ATP, 1 mM NADPH, enhanced by sfp gene product, room temperature, 20 min; against empty vector control (FIG. 12)
Protocol: The activity of each of the N-terminal His-tagged carboxylate reductases of SEQ ID NOs: 3, 6, and 7 (see Examples 4, and FIGS. 7B, 7E, and 7F) for converting N7-acetyl-7-aminoheptanoate to N7-acetyl-7-aminoheptanal was assayed in triplicate in a buffer composed of a final concentration of 50 mM HEPES buffer (pH=7.5), 2 mM N7-acetyl-7-aminoheptanoate, 10 mM MgCl2, 1 mM ATP, and 1 mM NADPH. The assays were initiated by adding purified carboxylate reductase and phosphopantetheine transferase or the empty vector control to the assay buffer containing the N7-acetyl-7-aminoheptanoate then incubated at room temperature for 20 min. The consumption of NADPH was monitored by absorbance at 340 nm.

B1: gene product of tesB: Escherichia coli thioesterase encoded by tesB (GenBank Accession No. AAA24665.1) (protein, listed as Escherichia coli)
chain: MSQALKNLLTLLNLEKIEEGLFRGQSEDLGLRQVFGGQVVGQALYAAKETVPEERLVHSFHSYFLRPGDSKKPIIYDVETLRDGNSFSARRVAAIQNGKPIFYMTASFQAPEAGFEHQKTMPSAPAPDGLPSETQIAQSLAHLLPPVLKDKFICDRPLEVRPVEFHNPLKGHVAEPHRQVWIRANGSVPDDLRVHQYLLGYASDLNFLPVALQPHGIGFLEPGIQIATIDHSMWFHRPFNLNEWLLYSVESTSASSARGFVRGEFYTQDGVLVASTVQEGVMRNHN
With B1 the “substrate acceptance, release of Coenzyme A monitored by absorbance at 412 nm” value [1] was “accepted pimeloyl-CoA as substrate”.

B2: SEQ ID NO 4: Segniliparus rugosus carboxylate reductase (Genbank Accession No. EFV 11917.1) (protein, listed as Segniliparus rugosus)
chain: MGDGEERAKRFFQRIGELSATDPQFAAAAPDPAVVEAVSDPSLSFTRYLDTLMRGYAERPALAHRVGAGYETISYGELWARVGAIAAAWQADGLAPGDFVATVGFTSPDYVAVDLAAARSGLVSVPLQAGASLAQLVGILEETEPKVLAASASSLEGAVACALAAPSVQRLVVFDLRGPDASESAADERRGALADAEEQLARAGRAVVVETLADLAARGEALPEAPLFEPAEGEDPLALLIYTSGSTGAPKGAMYSQRLVSQLWGRTPVVPGMPNISLHYMPLSHSYGRAVLAGALSAGGTAHFTANSDLSTLFEDIALARPTFLALVPRVCEMLFQESQRGQDVAELRERVLGGRLLVAVCGSAPLSPEMRAFMEEVLGFPLLDGYGSTEALGVMRNGIIQRPPVIDYKLVDVPELGYRTTDKPYPRGELCIRSTSLISGYYKRPEITAEVFDAQGYYKTGDVMAEIAPDHLVYVDRSKNVLKLSQGEFVAVAKLEAAYGTSPYVKQIFVYGNSERSFLLAVVVPNAEVLGARDQEEAKPLIAASLQKIAKEAGLQSYEVPRDFLIETEPFTTQNGLLSEVGKLLRPKLKARYGEALEARYDEIAHGQADELRALRDGAGQRPVVETVVRAAVAISGSEGAEVGPEANFADLGGDSLSALSLANLLHDVFEVEVPVRIIIGPTASLAGIAKHIEAERAGASAPTAASVHGAGATRIRASELTLEKFLPEDLLAAAKGLPAADQVRTVLLTGANGWLGRFLALEQLERLARSGQDGGKLICLVRGKDAAAARRRIEETLGTDPALAARFAELAEGRLEVVPGDVGEPKFGLDDAAWDRLAEEVDVIVHPAALVNHVLPYHQLFGPNVVGTAEIIRLAITAKRKPVTYLSTVAVAAGVEPSSFEEDGDIRAVVPERPLGDGYANGYGNSKWAGEVLLREAHELVGLPVAVFRSDMILAHTRYTGQLNVPDQFTRLVLSLLATGIAPKSFYQQGAAGERQRAHYDGIPVDFTAEAITTLGAEPSWFDGGAGFRSFDVFNPHHDGVGLDEFVDWLIEAGHPISRIDDHKEWFARFETAVRGLPEAQRQHSLLPLLRAYSFPHPPVDGSVYPTGKFQGAVKAAQVGSDHDVPHLGKALIVKYADDLKALGLL
In the case of B2, the “substrate acceptance, consumption of NADPH by absorbance at 340 nm” value [2] is reported as “accepted pimelate as substrate”.

B3: SEQ ID NO 6: Mycobacterium massiliense carboxylate reductase (Genbank Accession No. EIV 11143.1) (protein)
chain: MTNETNPQQEQLSRRIESLRESDPQFRAAQPDPAVAEQVLRPGLHLSEAIAALMTGYAERPALGERARELVIDQDGRTTLRLLPRFDTTTYGELWSRTTSVAAAWHHDATHPVKAGDLVATLGFTSIDYTVLDLAIMILGGVAVPLQTSAPASQWTTILAEAEPNTLAVSIELIGAAMESVRATPSIKQVVVFDYTPEVDDQREAFEAASTQLAGTGIALETLDAVIARGAALPAAPLYAPSAGDDPLALLIYTSGSTGAPKGAMHSENIVRRWWIREDVMAGTENLPMIGLNFMPMSHIMGRGTLTSTLSTGGTGYFAASSDMSTLFEDMELIRPTALALVPRVCDMVFQRFQTEVDRRLASGDTASAEAVAAEVKADIRDNLFGGRVSAVMVGSAPLSEELGEFIESCFELNLTDGYGSTEAGMVFRDGIVQRPPVIDYKLVDVPELGYFSTDKPHPRGELLLKTDGMFLGYYKRPEVTASVFDADGFYMTGDIVAELAHDNIEIIDRRNNVLKLSQGEFVAVATLEAEYANSPVVHQIYVYGSSERSYLLAVVVPTPEAVAAAKGDAAALKTTIADSLQDIAKEIQLQSYEVPRDFIIEPQPFTQGNGLLTGIAKLARPNLKAHYGPRLEQMYAEIAEQQAAELRALHGVDPDKPALETVLKAAQALLGVSSAELAADAHFTDLGGDSLSALSFSDLLRDIFAVEVPVGVIVSAANDLGGVAKFVDEQRHSGGTRPTAETVHGAGHTEIRAADLTLDKFIDEATLHAAPSLPKAAGIPHTVLLTGSNGYLGHYLALEWLERLDKTDGKLIVIVRGKNAEAAYGRLEEAFDTGDTELLAHFRSLADKHLEVLAGDIGDPNLGLDADTWQRLADTVDVIVHPAALVNHVLPYNQLFGPNVVGTAEIIKLAITTKIKPVTYLSTVAVAAYVDPTTFDEESDIRLISAVRPIDDGYANGYGNAKWAGEVLLREAHDLCGLPVAVFRSDMILAHSRYTGQLNVPDQFTRLILSLIATGIAPGSFYQAQTTGERPLAHYDGLPGDFTAEAITTLGTQVPEGSEGFVTYDCVNPHADGISLDNFVDWLIEAGYPIARIDNYTEWFTRFDTAIRGLSEKQKQHSLLPLLHAFEQPSAAENHGVVPAKRFQHAVQAAGIGPVGQDGTTDIPHLSRRLIVKYAKDLEQLGLL
modifications: Mycobacterium massiliense
With B3 the “substrate acceptance, consumption of NADPH by absorbance at 340 nm” value [3] was “accepted N7-acetyl-7-aminoheptanoate as substrate”.
